Measured values reported in patent publication US20210348152A1 (TECHNION RESEARCH AND DEVELOPMENT FOUNDATION, published 2021).
Where a chain is given by its changes, count along the chain named.

T1: KPC1Δ967-1043 (FLAG-tagged) (Homo sapiens (Human), UniProt Q5XPI4 1-1314)
T1 construct: also called KPC1 species vii
T1 sequence: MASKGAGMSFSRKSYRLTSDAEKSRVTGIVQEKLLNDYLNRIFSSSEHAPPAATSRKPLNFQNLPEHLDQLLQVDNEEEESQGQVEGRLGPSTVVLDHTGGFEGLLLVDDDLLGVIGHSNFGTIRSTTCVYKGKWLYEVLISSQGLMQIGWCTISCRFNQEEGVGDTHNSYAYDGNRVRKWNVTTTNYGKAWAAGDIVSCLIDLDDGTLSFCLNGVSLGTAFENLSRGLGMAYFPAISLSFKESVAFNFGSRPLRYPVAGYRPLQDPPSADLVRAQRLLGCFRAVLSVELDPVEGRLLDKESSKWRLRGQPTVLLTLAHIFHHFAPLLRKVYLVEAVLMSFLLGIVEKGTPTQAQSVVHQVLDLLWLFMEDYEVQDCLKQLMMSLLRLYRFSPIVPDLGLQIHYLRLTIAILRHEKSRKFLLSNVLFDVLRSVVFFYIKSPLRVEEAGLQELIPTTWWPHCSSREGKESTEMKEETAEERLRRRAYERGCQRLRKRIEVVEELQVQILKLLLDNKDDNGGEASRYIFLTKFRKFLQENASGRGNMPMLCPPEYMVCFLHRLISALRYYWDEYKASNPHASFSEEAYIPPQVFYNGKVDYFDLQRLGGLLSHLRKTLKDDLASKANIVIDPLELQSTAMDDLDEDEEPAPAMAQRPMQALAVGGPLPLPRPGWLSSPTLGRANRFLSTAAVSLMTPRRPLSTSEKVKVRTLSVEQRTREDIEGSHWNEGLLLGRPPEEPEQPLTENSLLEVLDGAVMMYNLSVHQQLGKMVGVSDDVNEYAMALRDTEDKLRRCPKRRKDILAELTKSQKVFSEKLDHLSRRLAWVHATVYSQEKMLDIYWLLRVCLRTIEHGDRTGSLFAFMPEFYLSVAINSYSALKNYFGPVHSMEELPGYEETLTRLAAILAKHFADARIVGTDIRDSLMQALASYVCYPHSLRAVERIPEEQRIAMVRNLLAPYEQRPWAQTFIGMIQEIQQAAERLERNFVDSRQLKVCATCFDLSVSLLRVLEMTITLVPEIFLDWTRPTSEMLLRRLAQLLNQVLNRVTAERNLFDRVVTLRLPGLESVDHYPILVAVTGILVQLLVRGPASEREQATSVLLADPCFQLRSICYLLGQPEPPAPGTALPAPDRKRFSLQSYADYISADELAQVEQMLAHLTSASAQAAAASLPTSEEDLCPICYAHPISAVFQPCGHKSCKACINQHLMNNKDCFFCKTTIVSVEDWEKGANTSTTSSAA

B1: p105-HA (other, UniProt P19838 1-968, looked up)
chain: MAEDDPYLGRPEQMFHLDPSLTHTIFNPEVFQPQMALPTDGPYLQILEQPKQRGFRFRYVCEGPSHGGLPGASSEKNKKSYPQVKICNYVGPAKVIVQLVTNGKNIHLHAHSLVGKHCEDGICTVTAGPKDMVVGFANLGILHVTKKKVFETLEARMTEACIRGYNPGLLVHPDLAYLQAEGGGDRQLGDREKELIRQAALQQTKEMDLSVVRLMFTAFLPDSTGSFTRRLEPVVSDAIYDSKAPNASNLKIVRMDRTAGCVTGGEEIYLLCDKVQKDDIQIRFYEEEENGGVWEGFGDFSPTDVHRQFAIVFKTPKYKDINITKPASVFVQLRRKSDLETSEPKPFLYYPEIKDKEEVQRKRQKLMPNFSDSFGGGSGAGAGGGGMFGSGGGGGGTGSTGPGYSFPHYGFPTYGGITFHPGTTKSNAGMKHGTMDTESKKDPEGCDKSDDKNTVNLFGKVIETTEQDQEPSEATVGNGEVTLTYATGTKEESAGVQDNLFLEKAMQLAKRHANALFDYAVTGDVKMLLAVQRHLTAVQDENGDSVLHLAIIHLHSQLVRDLLEVTSGLISDDIINMRNDLYQTPLHLAVITKQEDVVEDLLRAGADLSLLDRLGNSVLHLAAKEGHDKVLSILLKHKKAALLLDHPNGDGLNAIHLAMMSNSLPCLLLLVAAGADVNAQEQKSGRTALHLAVEHDNISLAGCLLLEGDAHVDSTTYDGTTPLHIAAGRGSTRLAALLKAAGADPLVENFEPLYDLDDSWENAGEDEGVVPGTTPLDMATSWQVFDILNGKPYEPEFTSDDLLAQGDMKQLAEDVKLQLYKLLEIPDPDKNWATLAQKLGLGILNNAFRLSPAPSKTLMDNYEVSGGTVRELVEALRQMGYTEAIEVIQAASSPVKTTSQAHSLPLSPASTRQQIDELRDSDSVCDSGVETSFRKLSFTESLTSGASLLTLNKMPHDYGQEGPLEGKI
notes: Co-expressed with FLAG-tagged KPC1 species in HEK293T cells and detected with anti-NF-κB1 after anti-FLAG immunoprecipitation; also called NF-κB1 p105; NF-kB1 p105; not shown: HA tag
B2: RLW-KPC1 Δ 1-1253 (enzyme)
chain: RLWCPICYAHPISAVFQPCGHKSCKACINQHLMNNKDCFFCKTTIVSVEDWEKGANTSTTSSAA
notes: also called KPC1 species xv
B3: WIL-KPC1 Δ 1-1253 (enzyme)
chain: B2 chain with R1W, L2I, W3L
notes: also called KPC1 species xx
B4: ILVRLW-KPC1 Δ 1-1253 (enzyme)
chain: ILVRLWCPICYAHPISAVFQPCGHKSCKACINQHLMNNKDCFFCKTTIVSVEDWEKGANTSTTSSAA
notes: also called KPC1 species xii
B5: WILVRL-KPC1 Δ 1-1253 (enzyme)
chain: B4 chain with I1W, L2I, V3L, R4V, L5R, W6L
notes: also called KPC1 species xvii
B6: KPC1 Δ 1-1253 (enzyme)
chain: CPICYAHPISAVFQPCGHKSCKACINQHLMNNKDCFFCKTTIVSVEDWEKGANTSTTSSAA
notes: also called KPC1 species xvi
B7: KPC1Δ1-1017 (FLAG-tagged) (enzyme)
chain: LLQQGPDVAPSFLNSVLNQLNWAFSEFIGMIQEIQQAAERLERNFVDSRQLKVCATCFDLSVSLLRVLEMTITLVPEIFLDWTRPTSEMLLRRLAQLLNQVLNRVTAERNLFDRVVTLRLPGLESVDHYPILVAVTGILVQLLVRGPASEREQATSVLLADPCFQLRSICYLLGQPEPPAPGTALPAPDRKRFSLQSYADYISADELAQVEQMLAHLTSASAQAAAASLPTSEEDLCPICYAHPISAVFQPCGHKSCKACINQHLMNNKDCFFCKTTIVSVEDWEKGANTSTTSSAA
notes: Lacks amino acids 1-1017; also called KPC1 species x
B8: KPC1Δ1-973 (FLAG-tagged) (enzyme)
chain: WRGCGFGYRYTRLPHLLKTKLEDANLPSLQKPCPSTLLQQHMADLLQQGPDVAPSFLNSVLNQLNWAFSEFIGMIQEIQQAAERLERNFVDSRQLKVCATCFDLSVSLLRVLEMTITLVPEIFLDWTRPTSEMLLRRLAQLLNQVLNRVTAERNLFDRVVTLRLPGLESVDHYPILVAVTGILVQLLVRGPASEREQATSVLLADPCFQLRSICYLLGQPEPPAPGTALPAPDRKRFSLQSYADYISADELAQVEQMLAHLTSASAQAAAASLPTSEEDLCPICYAHPISAVFQPCGHKSCKACINQHLMNNKDCFFCKTTIVSVEDWEKGANTSTTSSAA
notes: also called KPC1 species ix
B9: KPC1Δ1-1042 (FLAG-tagged) (enzyme)
chain: EFIGMIQEIQQAAERLERNFVDSRQLKVCATCFDLSVSLLRVLEMTITLVPEIFLDWTRPTSEMLLRRLAQLLNQVLNRVTAERNLFDRVVTLRLPGLESVDHYPILVAVTGILVQLLVRGPASEREQATSVLLADPCFQLRSICYLLGQPEPPAPGTALPAPDRKRFSLQSYADYISADELAQVEQMLAHLTSASAQAAAASLPTSEEDLCPICYAHPISAVFQPCGHKSCKACINQHLMNNKDCFFCKTTIVSVEDWEKGANTSTTSSAA
notes: also called KPC1 species v
B10: LVRLW-KPC1 Δ 1-1253 (enzyme)
chain: LVRLWCPICYAHPISAVFQPCGHKSCKACINQHLMNNKDCFFCKTTIVSVEDWEKGANTSTTSSAA
notes: also called KPC1 species xiii
B11: WILVR-KPC1 Δ 1-1253 (enzyme)
chain: B10 chain with L1W, V2I, R3L, L4V, W5R
notes: also called KPC1 species xviii
B12: VRLW-KPC1 Δ 1-1253 (enzyme)
chain: VRLWCPICYAHPISAVFQPCGHKSCKACINQHLMNNKDCFFCKTTIVSVEDWEKGANTSTTSSAA
notes: also called KPC1 species xiv
B13: WILV-KPC1 Δ 1-1253 (enzyme)
chain: B12 chain with V1W, R2I, W4V
notes: also called KPC1 species xix

What follows are binders tested against T1, KPC1Δ967-1043 (FLAG-tagged) (assay: co-immunoprecipitation (anti-FLAG) from HEK293T cells, western blot).
Description: (§1) HEK293T cells were transiently transfected with the various KPC1 species along with p105-HA using the j etPEI reagent. 48 hours after transfection, the cells were harvested and lysed with RIPA buffer [150 mM NaCl, 0.5% sodium deoxycholate, 50 mM Tris-HCl (pH 8.0), 0.1% SDS, and 1% NP-40, supplemented with freshly added protease inhibitors mixture]. KPC1 species proteins were immunoprecipitated with immobilized anti-FLAG, with subsequent washing of the beads five times with RIPA buffer. The immunoprecipitated proteins were resolved by SDS-PAGE (10%, FIGS. 1A, 1B, 2A and 2B, with a gel gradient, of 4-20%; FIGS. 3A and 3B), and blotted onto nitrocellulose (FIGS. 1A, 1B, 2A and 2B) or PVDF (FIGS. 3A and 3B) membranes. p105 and KPC1 species were visualized using anti-NF-kB1 or anti-FLAG antibodies, respectively.
(§2) Identification of the region of KPC1 that is responsible for the interaction with p105. In order to identify the region of KPC1 that is responsible for the interaction with p105, several truncated segments of the DNA sequence of the KPC1 protein were cloned. The truncated segments were inserted into the pCAGGS expression vector to analyze their interaction with p105 by co-immunoprecipitation (Co-IP) from cells. HEK 293T cells were transfected with cDNAs coding for p105-HA, along with different fragments of KPC1 (FIG. 1A). Species of KPC1 were immunoprecipitated using an immobilized anti-Flag antibody. The precipitated proteins were resolved via SDS-PAGE and detected by Western blot using anti NF-κB1 and anti-FLAG antibodies.

Row | binding result | Binder
1 | no binding | B1

Each binder was assayed against B1 in the same assay as above.
Description: as §1, §2

Row | binding result | Binder
2 | no binding | B2
3 | no binding | B3
4 | no binding | B4
5 | no binding | B5
6 | no binding | B6
7 | no binding | B7
8 | no binding | B8
9 | no binding | B9
10 | no binding | B10
11 | no binding | B11
12 | no binding | B12
13 | no binding | B13
